Assay [1] has as its target T1, Human HER3 protein on the cell surface (human, UniProt P21860 20-1342). The experiment in a line: cell-based or functional assay.
The target in assay [2] is T1, Human HER3 protein on the cell surface. The experiment in a line: FACS on MDA-MB-453 cells (HER3 single-positive).
Assay [3] has as its target T2, His-tagged human MET antigen (human, UniProt P08581 25-932).
T2 construct: Soluble antigen used as analyte in SPR; not shown: His tag
Description: SPR, Biacore 8K; antibody captured, His-tagged human MET antigen 6.25-400 nM as analyte; 1:1 Langmuir. Background: Surface plasmon resonance follows binding to a sensor surface in real time, without labels.

Assay [4] has as its target T3, Human MET protein on the cell surface (human, UniProt P08581 25-1390). Description: cell-based or functional assay.
In assay [5] the target is T3, Human MET protein on the cell surface. Description: FACS on NCI-H1975 cells (MET single-positive), FIG. 3.
Assay [6] addresses Human HER3 and MET proteins together on HER3/MET double-positive cells (human, UniProt P21860 20-1342; P08581 25-1390). The experiment in a line: cell-based or functional assay.

Usually Kd stands for the concentration at which binding is half-saturated. Low values mean tighter binding, high ones weaker binding. One may read the koff as the rate constant with which the complex falls apart. Read a high koff as fast dissociation. The kon is the second-order rate constant of association. High values mean faster complex formation, low ones slower complex formation. What is called EC50 is the concentration that produces a half-maximal response. A low value points to higher potency in that assay.

T2 sequence (P08581 25-932 limits assumed): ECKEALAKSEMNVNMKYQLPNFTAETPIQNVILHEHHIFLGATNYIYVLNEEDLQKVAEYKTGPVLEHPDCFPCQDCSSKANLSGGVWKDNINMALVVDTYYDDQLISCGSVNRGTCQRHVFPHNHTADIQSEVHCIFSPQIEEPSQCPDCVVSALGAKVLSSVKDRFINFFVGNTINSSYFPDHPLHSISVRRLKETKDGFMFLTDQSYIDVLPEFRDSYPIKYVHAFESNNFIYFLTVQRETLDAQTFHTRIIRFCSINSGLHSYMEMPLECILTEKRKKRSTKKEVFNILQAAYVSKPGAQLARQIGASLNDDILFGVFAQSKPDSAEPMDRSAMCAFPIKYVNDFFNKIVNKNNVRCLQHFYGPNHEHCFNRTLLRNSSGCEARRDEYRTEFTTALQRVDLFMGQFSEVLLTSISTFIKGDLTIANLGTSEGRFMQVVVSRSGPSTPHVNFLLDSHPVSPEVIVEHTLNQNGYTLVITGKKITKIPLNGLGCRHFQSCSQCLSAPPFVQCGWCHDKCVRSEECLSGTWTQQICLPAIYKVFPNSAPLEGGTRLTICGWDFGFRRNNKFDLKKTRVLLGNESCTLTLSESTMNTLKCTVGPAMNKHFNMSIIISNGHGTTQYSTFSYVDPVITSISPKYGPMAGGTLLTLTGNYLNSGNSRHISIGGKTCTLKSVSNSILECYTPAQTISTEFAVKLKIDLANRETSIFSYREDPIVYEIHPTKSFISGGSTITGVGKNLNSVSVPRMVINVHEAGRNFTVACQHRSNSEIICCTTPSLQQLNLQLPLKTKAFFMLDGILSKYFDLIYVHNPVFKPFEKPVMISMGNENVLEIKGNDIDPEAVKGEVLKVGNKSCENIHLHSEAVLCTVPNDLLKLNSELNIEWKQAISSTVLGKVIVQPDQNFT
T3 sequence (P08581 25-1390): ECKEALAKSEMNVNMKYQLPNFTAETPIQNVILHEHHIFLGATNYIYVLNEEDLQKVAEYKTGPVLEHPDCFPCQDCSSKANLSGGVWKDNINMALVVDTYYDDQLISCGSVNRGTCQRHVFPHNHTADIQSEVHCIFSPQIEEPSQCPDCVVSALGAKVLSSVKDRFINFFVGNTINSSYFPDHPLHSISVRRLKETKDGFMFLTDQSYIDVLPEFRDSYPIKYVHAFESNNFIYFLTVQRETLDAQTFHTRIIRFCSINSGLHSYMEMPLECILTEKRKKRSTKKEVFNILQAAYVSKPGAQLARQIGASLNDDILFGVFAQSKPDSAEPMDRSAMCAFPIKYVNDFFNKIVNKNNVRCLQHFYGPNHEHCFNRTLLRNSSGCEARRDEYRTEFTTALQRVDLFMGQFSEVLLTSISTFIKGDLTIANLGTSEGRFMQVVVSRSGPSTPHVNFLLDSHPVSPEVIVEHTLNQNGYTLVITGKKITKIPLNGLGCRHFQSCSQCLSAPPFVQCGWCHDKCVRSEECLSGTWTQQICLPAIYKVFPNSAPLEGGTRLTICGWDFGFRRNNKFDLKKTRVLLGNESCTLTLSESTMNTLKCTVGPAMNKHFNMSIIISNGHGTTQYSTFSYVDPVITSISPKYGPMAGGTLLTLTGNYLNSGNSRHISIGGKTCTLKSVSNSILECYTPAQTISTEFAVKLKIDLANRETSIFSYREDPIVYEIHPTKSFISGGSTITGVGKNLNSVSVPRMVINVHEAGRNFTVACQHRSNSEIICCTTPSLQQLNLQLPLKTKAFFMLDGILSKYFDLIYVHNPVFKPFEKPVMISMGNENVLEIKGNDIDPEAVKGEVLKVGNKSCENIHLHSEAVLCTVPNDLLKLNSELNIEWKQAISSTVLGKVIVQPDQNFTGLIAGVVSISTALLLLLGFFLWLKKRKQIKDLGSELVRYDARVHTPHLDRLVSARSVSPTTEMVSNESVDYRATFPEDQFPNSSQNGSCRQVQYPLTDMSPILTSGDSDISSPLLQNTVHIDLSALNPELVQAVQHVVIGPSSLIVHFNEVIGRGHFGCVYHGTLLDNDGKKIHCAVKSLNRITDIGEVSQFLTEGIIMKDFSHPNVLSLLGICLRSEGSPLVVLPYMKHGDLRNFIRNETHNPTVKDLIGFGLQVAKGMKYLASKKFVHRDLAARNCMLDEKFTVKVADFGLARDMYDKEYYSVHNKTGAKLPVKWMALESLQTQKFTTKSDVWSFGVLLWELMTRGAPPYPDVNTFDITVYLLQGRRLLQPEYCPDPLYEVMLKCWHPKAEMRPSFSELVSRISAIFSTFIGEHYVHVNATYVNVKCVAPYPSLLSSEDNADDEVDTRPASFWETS

B1: Anti-MET antibody S3 (antibody, human IgG2, kappa, V domains shown)
VH: QVQLVESGGGVVQPGRSLRLSCAASGFSLSNYGVHWVRQAPGKGLEWLAVIWSGGSTNYAAAFVSRLTISKDNSKNTVYLQMNSLRAEDTAVYYCARNHDNPYNYAMDYWGQGTTVTVSS
VL: DIVLTQSPDSLAVSLGERATINCRADKSVSTSTYNYLHWYQQKPGQPPKLLIYLASNLASGVPDRFSGSGSGTDFTLTISSLQAEDVAVYYCQHSRDLPPTFGQGTKLEIKR
Regarding B1, the “Minimum cell viability (%)” value in assay [1] is 97.3%. For the same molecule, the Maximum fluorescence value in assay [2] was determined as 77.

B2: Anti-MET antibody A13 (antibody, human IgG1, kappa, V domains shown)
VH: QVQLVQSGAEVKKPGASVKVSCEASGYTFTSYGFSWVRQAPGQGLEWMGWISASNGNTYYAQKLQGRVTMTTDTSTSSAYMELRSLRSDDTAVYYCARVYADYADYWGQGTLVTVSS
VL: DIQMTQSPSSVSASVGDRVTITCRASQGINTWLAWYQQKPGKAPKLLIYAASSLKSGVPSRFSGSGSGADFTLTISSLQPEDFATYYCQQANSFPLTFGGGTKVEIKR
With B2, in assay [3], binding was put at a Kd of 6.55 nM, the off-rate constant (koff) amounted to 0.000614 s⁻¹ and the kon was 93800 M⁻¹ s⁻¹. Moreover, in assay [4], the “Endocytosis ratio at 0 h (FACS)” value was 0%, the “Endocytosis ratio at 0.5 h (FACS)” value came to 25.7%, the “Endocytosis ratio at 2 h (FACS)” value came out at 45.7% and the “Endocytosis ratio at 6 h (FACS)” value was 57.6%.

B3: Anti-HER3/MET bispecific antibody P3-A (bispecific antibody, human IgG1, kappa)
heavy 1: not shown
light 1: QAVLTQPSSVSGAPGQRVTISCTGSSSNIGAGYDVHWYQQLPGTAPKLLIYGNSNRPSGVPDRFSGSKSGTSASLAITGLQAEDEADYYCQSYDSSLSGVFGTGTQLTVLGGGGSGIPPKIECLPIDISIDEGKVLTVASAFTGEPTPEVTWSTGGRKIHSQEQGRFHIENTDDSTTLTIKDVQKQDGGLYTLTLRNEFGSDSATVNIHIRSI
heavy 2: QVQLVQSGGGLVQPGRSLRLSCAASGFTFDDYAMHWVRQAPGKGLEWVSGISWNSGSIGYADSVKGRFTISRDNAKNSLYLQMNSLRAEDTALYYCAKEGLPGLDYWGQGTLVTVSSASTKGPSVFPLAPSSKSTSGGTAALGCLVKDYFPEPVTVSWNSGALTSGVHTFPAVLQSSGLYSLSSVVTVPSSSLGTQTYICNVNHKPSNTKVDKKVEPKSCDKTHTCPPCPAPELLGGPSVFLFPPKPKDTLMISRTPEVTCVVVDVSHEDPEVKFNWYVDGVEVHNAKTKPREEQYNSTYRVVSVLTVLHQDWLNGKEYKCKVSNKALPAPIEKTISKAKGQPREPQVCTLPPSREEMTKNQVSLSCAVKGFYPSDIAVEWESNGQPENNYKTTPPVLDSDGSFFLVSKLTVDKSRWQQGNVFSCSVMHEALHNHYTQKSLSLSPGK
light 2: DIQMTQSPSSLSASIGDRATITCRASQHVGTYLNWYQQKPGKTPKLLISGAANLQSGVPSRFSGSGSGTDFTLTISSLQPEDFATYYCQQSYNTPPFSFGQGTKVEIKRTVAAPSVFIFPPSDEQLKSGTASVVCLLNNFYPREAKVQWKVDNALQSGNSQESVTEQDSKDSTYSLSSTLTLSKADYEKHKVYACEVTHQGLSSPVTKSFNRGEC
Regarding B3, the binding result in assay [5] is listed as “binds”. In assay [6], the “Minimum cell viability (%)” value came out at 16.4%.

B4: Anti-HER3/MET bispecific antibody 2232-02 (S3-A) (bispecific antibody, human IgG1, kappa)
heavy 1: not shown
light 1: DIVLTQSPDSLAVSLGERATINCRADKSVSTSTYNYLHWYQQKPGQPPKLLIYLASNLASGVPDRFSGSGSGTDFTLTISSLQAEDVAVYYCQHSRDLPPTFGQGTKLEIKGGGGSGIPPKIECLPIDISIDEGKVLTVASAFTGEPTPEVTWSTGGRKIHSQEQGRFHIENTDDSTTLTIKDVQKQDGGLYTLTLRNEFGSDSATVNIHIRSI
heavy 2: QVQLVQSGGGLVQPGRSLRLSCAASGFTFDDYAMHWVRQAPGKGLEWVSGISWNSGSIGYADSVKGRFTISRDNAKNSLYLQMNSLRAEDTALYYCAKEGLPGLDYWGQGTLVTVSSASTKGPSVFPLAPSSKSTSGGTAALGCLVKDYFPEPVTVSWNSGALTSGVHTFPAVLQSSGLYSLSSVVTVPSSSLGTQTYICNVNHKPSNTKVDKKVEPKSCDKTHTCPPCPAPELLGGPSVFLFPPKPKDTLMISRTPEVTCVVVDVSHEDPEVKFNWYVDGVEVHNAKTKPREEQYNSTYRVVSVLTVLHQDWLNGKEYKCKVSNKALPAPIEKTISKAKGQPREPQVCTLPPSREEMTKNQVSLSCAVKGFYPSDIAVEWESNGQPENNYKTTPPVLDSDGSFFLVSKLTVDKSRWQQGNVFSCSVMHEALHNHYTQKSLSLSPGK
light 2: DIQMTQSPSSLSASIGDRATITCRASQHVGTYLNWYQQKPGKTPKLLISGAANLQSGVPSRFSGSGSGTDFTLTISSLQPEDFATYYCQQSYNTPPFSFGQGTKVEIKRTVAAPSVFIFPPSDEQLKSGTASVVCLLNNFYPREAKVQWKVDNALQSGNSQESVTEQDSKDSTYSLSSTLTLSKADYEKHKVYACEVTHQGLSSPVTKSFNRGEC
Turning to B4, in assay [1], the “Minimum cell viability (%)” value was found to be 25.8%. In assay [2], the concentration for a half-maximal effect (EC50) turned out to be 2.64 nM and the Maximum fluorescence value worked out at 1870.

B5: Anti-HER3/MET bispecific antibody 5D5-A (bispecific antibody, human IgG1, kappa)
heavy 1: not shown
light 1: DIQMTQSPSSLSASVGDRVTITCKSSQSLLYTSSQKNYLAWYQQKPGKAPKLLIYWASTRESGVPSRFSGSGSGTDFTLTISSLQPEDFATYYCQQYYAYPWTFGQGTKVEIKGGGGSGIPPKIECLPIDISIDEGKVLTVASAFTGEPTPEVTWSTGGRKIHSQEQGRFHIENTDDSTTLTIKDVQKQDGGLYTLTLRNEFGSDSATVNIHIRSI
heavy 2: QVQLVQSGGGLVQPGRSLRLSCAASGFTFDDYAMHWVRQAPGKGLEWVSGISWNSGSIGYADSVKGRFTISRDNAKNSLYLQMNSLRAEDTALYYCAKEGLPGLDYWGQGTLVTVSSASTKGPSVFPLAPSSKSTSGGTAALGCLVKDYFPEPVTVSWNSGALTSGVHTFPAVLQSSGLYSLSSVVTVPSSSLGTQTYICNVNHKPSNTKVDKKVEPKSCDKTHTCPPCPAPELLGGPSVFLFPPKPKDTLMISRTPEVTCVVVDVSHEDPEVKFNWYVDGVEVHNAKTKPREEQYNSTYRVVSVLTVLHQDWLNGKEYKCKVSNKALPAPIEKTISKAKGQPREPQVCTLPPSREEMTKNQVSLSCAVKGFYPSDIAVEWESNGQPENNYKTTPPVLDSDGSFFLVSKLTVDKSRWQQGNVFSCSVMHEALHNHYTQKSLSLSPGK
light 2: DIQMTQSPSSLSASIGDRATITCRASQHVGTYLNWYQQKPGKTPKLLISGAANLQSGVPSRFSGSGSGTDFTLTISSLQPEDFATYYCQQSYNTPPFSFGQGTKVEIKRTVAAPSVFIFPPSDEQLKSGTASVVCLLNNFYPREAKVQWKVDNALQSGNSQESVTEQDSKDSTYSLSSTLTLSKADYEKHKVYACEVTHQGLSSPVTKSFNRGEC
With B5, the binding result in assay [5] is recorded as “binds”. In addition, the “Minimum cell viability (%)” value in assay [6] came out at 20.5%.

B6: Anti-HER3/MET bispecific antibody P8-A (bispecific antibody, human IgG1, kappa)
heavy 1: not shown
light 1: NFMLTQPHSVSESPGKTVTISCTRSSGSIAFDYVQWYQQRPGSAPTTVIYEDNQRPSGVPDRFSASIDSSSNSASLTISALKTEDEADYYCQSYDNSNSWVFGGGTKLTVLGGGGSGIPPKIECLPIDISIDEGKVLTVASAFTGEPTPEVTWSTGGRKIHSQEQGRFHIENTDDSTTLTIKDVQKQDGGLYTLTLRNEFGSDSATVNIHIRSI
heavy 2: QVQLVQSGGGLVQPGRSLRLSCAASGFTFDDYAMHWVRQAPGKGLEWVSGISWNSGSIGYADSVKGRFTISRDNAKNSLYLQMNSLRAEDTALYYCAKEGLPGLDYWGQGTLVTVSSASTKGPSVFPLAPSSKSTSGGTAALGCLVKDYFPEPVTVSWNSGALTSGVHTFPAVLQSSGLYSLSSVVTVPSSSLGTQTYICNVNHKPSNTKVDKKVEPKSCDKTHTCPPCPAPELLGGPSVFLFPPKPKDTLMISRTPEVTCVVVDVSHEDPEVKFNWYVDGVEVHNAKTKPREEQYNSTYRVVSVLTVLHQDWLNGKEYKCKVSNKALPAPIEKTISKAKGQPREPQVCTLPPSREEMTKNQVSLSCAVKGFYPSDIAVEWESNGQPENNYKTTPPVLDSDGSFFLVSKLTVDKSRWQQGNVFSCSVMHEALHNHYTQKSLSLSPGK
light 2: DIQMTQSPSSLSASIGDRATITCRASQHVGTYLNWYQQKPGKTPKLLISGAANLQSGVPSRFSGSGSGTDFTLTISSLQPEDFATYYCQQSYNTPPFSFGQGTKVEIKRTVAAPSVFIFPPSDEQLKSGTASVVCLLNNFYPREAKVQWKVDNALQSGNSQESVTEQDSKDSTYSLSSTLTLSKADYEKHKVYACEVTHQGLSSPVTKSFNRGEC
As to B6, the “Minimum cell viability (%)” value in assay [6] is 12.1%.

B7: Anti-HER3/MET bispecific antibody A9-A (bispecific antibody, human IgG1, kappa)
heavy 1: not shown
light 1: EIVLTQSPGTLSLSPGERATLSCRASQSVSNNYLAWYQQKPGQAPRLLIFGASSRATGIPDRFSGSGSGTDFTLTISRLEPEDFAVYYCQQYDISPMYSFGQGTKLEMKGGGGSGIPPKIECLPIDISIDEGKVLTVASAFTGEPTPEVTWSTGGRKIHSQEQGRFHIENTDDSTTLTIKDVQKQDGGLYTLTLRNEFGSDSATVNIHIRSI
heavy 2: QVQLVQSGGGLVQPGRSLRLSCAASGFTFDDYAMHWVRQAPGKGLEWVSGISWNSGSIGYADSVKGRFTISRDNAKNSLYLQMNSLRAEDTALYYCAKEGLPGLDYWGQGTLVTVSSASTKGPSVFPLAPSSKSTSGGTAALGCLVKDYFPEPVTVSWNSGALTSGVHTFPAVLQSSGLYSLSSVVTVPSSSLGTQTYICNVNHKPSNTKVDKKVEPKSCDKTHTCPPCPAPELLGGPSVFLFPPKPKDTLMISRTPEVTCVVVDVSHEDPEVKFNWYVDGVEVHNAKTKPREEQYNSTYRVVSVLTVLHQDWLNGKEYKCKVSNKALPAPIEKTISKAKGQPREPQVCTLPPSREEMTKNQVSLSCAVKGFYPSDIAVEWESNGQPENNYKTTPPVLDSDGSFFLVSKLTVDKSRWQQGNVFSCSVMHEALHNHYTQKSLSLSPGK
light 2: DIQMTQSPSSLSASIGDRATITCRASQHVGTYLNWYQQKPGKTPKLLISGAANLQSGVPSRFSGSGSGTDFTLTISSLQPEDFATYYCQQSYNTPPFSFGQGTKVEIKRTVAAPSVFIFPPSDEQLKSGTASVVCLLNNFYPREAKVQWKVDNALQSGNSQESVTEQDSKDSTYSLSSTLTLSKADYEKHKVYACEVTHQGLSSPVTKSFNRGEC
For the molecule B7, the binding result in assay [5] is “binds”. Also, in assay [6], the “Minimum cell viability (%)” value was found to be 15.9%.

The record behind these values is EP4778941A1 (Jiangsu Hengrui Pharmaceuticals Co., Ltd., dated 2025).
